Measured values reported in patent US20150368300A1, “COMPOSITIONS AND METHODS RELATING TO […] DOT1L RECRUITMENT BY MLL-FUSION PROTEINS” (published 2015).
Values belong to the binder of their own block, whether it stands above or below them. Where no end group is shown, it is not given here. fluorescein = fluorescein label, coupled through a lysine and two β-alanine spacer

Legend:
[1] = target: T1, GB1-AF9 (497-568) (human) (UniProt P42568); test: competitive FP; displacement of N-Flu-DOT1L from GB1-AF9
T1 sequence: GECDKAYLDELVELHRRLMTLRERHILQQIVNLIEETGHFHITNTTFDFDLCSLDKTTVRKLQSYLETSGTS

[2] = target: T2, MBP-ENL (489-559) (Homo sapiens (Human)) (UniProt Q03111); test: ITC; peptide (400 µM) into MBP-ENL (489-559) (80 µM)
T2 sequence: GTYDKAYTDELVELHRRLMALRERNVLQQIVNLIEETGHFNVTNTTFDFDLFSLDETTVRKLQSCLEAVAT

[3] = target: T3, ENL (489-559), recombinant C-terminal domain of ENL (Homo sapiens (Human), UniProt Q03111); test: competitive SPR; peptide pre-incubated with ENL (500 nM), over immobilised Mocr-DOT1L (826-1095)
T3 sequence: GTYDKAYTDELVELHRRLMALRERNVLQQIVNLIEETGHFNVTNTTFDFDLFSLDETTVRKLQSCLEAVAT
Procedure: Solution competitive SPR based assay was performed to determine the IC₅₀ values of DOT1L peptides. […] IC₅₀ values were determined by non-linear least squares analysis using Graph Pad Prism 5.0 software.

[4] = target: T4, AF9 (497-568), recombinant C-terminal domain of human AF9 (human, UniProt P42568); test: competitive SPR; peptide pre-incubated with AF9 (500 nM), over immobilised Mocr-DOT1L (826-1095)
[5] = target: T1, GB1-AF9 (497-568) (human); test: competitive FP; displacement of Flu-DOT1L from GB1-AF9
[6] = target: T1, GB1-AF9 (497-568) (human); test: FP saturation; 5 nM labeled peptide titrated with GB1-AF9
[7] = target: T1, GB1-AF9 (497-568) (human); test: FP saturation; 10 nM Flu-DOT1L titrated with GB1-AF9
[8] = target: T2, MBP-ENL (489-559) (Homo sapiens (Human)); test: FP saturation; 10 nM Flu-DOT1L titrated with MBP-ENL
[9] = target: T5, DOT1L (854-925) (human) (UniProt Q8TEK3); test: SPR; DOT1L construct immobilised on CM5 chip
T5 sequence: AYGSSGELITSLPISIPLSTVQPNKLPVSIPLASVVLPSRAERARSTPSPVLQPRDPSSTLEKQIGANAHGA

[10] = target: DOT1L (854-1095) (human) (UniProt Q8TEK3); test: SPR; DOT1L construct immobilised on CM5 chip
[11] = target: T6, DOT1L (826-937) (human) (UniProt Q8TEK3); test: SPR; DOT1L construct immobilised on CM5 chip
T6 sequence: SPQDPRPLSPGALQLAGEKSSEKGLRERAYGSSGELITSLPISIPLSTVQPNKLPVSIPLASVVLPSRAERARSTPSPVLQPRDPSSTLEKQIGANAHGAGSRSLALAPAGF

[12] = target: DOT1L (925-1095) (human) (UniProt Q8TEK3); test: SPR; DOT1L construct immobilised on CM5 chip
[13] = target: Mocr-DOT1L (826-1095) (human) (UniProt Q8TEK3); test: SPR; DOT1L construct immobilised on CM5 chip
[14] = target: T7, DOT1L (826-958) (human) (UniProt Q8TEK3); test: SPR; DOT1L construct immobilised on CM5 chip
T7 sequence: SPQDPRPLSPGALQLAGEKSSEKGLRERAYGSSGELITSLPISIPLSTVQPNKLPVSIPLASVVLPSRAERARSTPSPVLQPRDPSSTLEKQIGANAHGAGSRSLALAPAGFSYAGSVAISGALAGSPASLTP

[15] = target: Flag-tagged full length human DOT1L protein, DOT1L (1-1537) (human) (UniProt Q8TEK3); test: SPR; Flag-DOT1L captured on anti-Flag CM5 chip, ENL as analyte
[16] = target: DOT1L (925-1095) (human) (UniProt Q8TEK3); test: SPR; DOT1L (925-1095) immobilised, compared with the longer constructs
[17] = target: Mocr-DOT1L (826-1095) (human) (UniProt Q8TEK3); test: SPR; Mocr-DOT1L (826-1095) immobilised
[18] = target: T2, MBP-ENL (489-559) (Homo sapiens (Human)); test: ITC
[19] = target: T2, MBP-ENL (489-559) (Homo sapiens (Human)); test: ITC; peptide (500 µM) into MBP-ENL (110 µM)
[20] = target: T4, AF9 (497-568), recombinant C-terminal …; test: competitive SPR
[21] = target: T3, ENL (489-559), recombinant C-terminal …; test: competitive SPR
[22] = target: Flag-tagged full length human DOT1L protein, DOT1L (1-1537) (human) (UniProt Q8TEK3); test: SPR; Flag-DOT1L captured on anti-Flag CM5 chip, AF9 as analyte
[23] = target: Flag-tagged full length human DOT1L protein, DOT1L (1-1537) (human) (UniProt Q8TEK3); test: SPR; full length Flag-DOT1L captured on chip

B2: L871A, alanine mutated DOT1L 10mer peptide (peptide)
peptide: Ac-LPISIPASTV-NH2
- IC50 [3]: 147000 nM
- IC50 [4]: 30700 nM

B3: P870A, alanine mutated DOT1L 10mer peptide (peptide)
peptide: Ac-LPISIALSTV-NH2
- IC50 [3]: 11600 nM
- IC50 [4]: 2800 nM

B4: AF4 14 mer peptide, Ac-…-NH2 (peptide)
peptide: Ac-LMVKITLDLLSRIP-NH2
- IC50 [5]: 280 nM

B5: C-Flu-DOT1L, fluorescently labeled DOT1L-10 mer peptide (C-terminal label) (peptide)
peptide: Ac-LPISIPLSTV-fluorescein
modifications: also: C-terminal fluorescein label, attachment not given here
- Kd [6]: 127 nM

B6: AF4 recombinant protein (749-775 residues) (peptide)
chain: LSPLRDTPPPQSLMVKITLDLLSRIPQ
- IC50 [5]: 560 nM

B8: S868A, alanine mutated DOT1L 10mer peptide (peptide)
peptide: Ac-LPIAIPLSTV-NH2
- IC50 [3]: 29100 nM
- IC50 [4]: 5300 nM

B10: S872A, alanine mutated DOT1L 10mer peptide (peptide)
peptide: Ac-LPISIPLATV-NH2
- IC50 [3]: 2800 nM
- IC50 [4]: 550 nM

B11: L865A, alanine mutated DOT1L 10mer peptide (peptide)
peptide: Ac-APISIPLSTV-NH2
- IC50 [3]: 27500 nM
- IC50 [4]: 98500 nM

B14: T873A, alanine mutated DOT1L 10mer peptide (peptide)
peptide: Ac-LPISIPLSAV-NH2
- Ki [1]: 203 nM
- IC50 [3]: 360 nM
- IC50 [4]: 58 nM

B16: I867A, alanine mutated DOT1L 10mer peptide (peptide)
peptide: Ac-LPASIPLSTV-NH2
- IC50 [3]: > 200000 nM
- IC50 [4]: 57200 nM

B18: I869A, alanine mutated DOT1L 10mer peptide (peptide)
peptide: Ac-LPISAPLSTV-NH2
- IC50 [3]: > 200000 nM
- IC50 [4]: > 200000 nM

B20: P866A, alanine mutated DOT1L 10mer peptide (peptide)
peptide: Ac-LAISIPLSTV-NH2
- IC50 [3]: 6500 nM
- IC50 [4]: 3300 nM

B21: AF4 14 mer peptide, Ac-LMVKITLDLLSRIP-NH2 (peptide)
peptide: Ac-LMVKITLDLLSRIP-NH2
- IC50 [3]: 430 nM
- IC50 [4]: 200 nM

B23: V874A, alanine mutated DOT1L 10mer peptide (peptide)
peptide: Ac-LPISIPLSTA-NH2
- IC50 [3]: 4200 nM
- IC50 [4]: 700 nM

B24: AF9 (497-568), recombinant C-terminal domain of human AF9 (protein)
chain: GECDKAYLDELVELHRRLMTLRERHILQQIVNLIEETGHFHITNTTFDFDLCSLDKTTVRKLQSYLETSGTS
- Kd [9]: 42 nM
- Kd [10]: 135 nM
- Kd [11]: 78 nM
- Kd [12]: 1820 nM
- Kd [13]: 111 nM
- Kd [14]: 92 nM
- fold decrease in binding affinity [16]: 50 fold
- Kd [22]: 33 nM
- fold higher affinity (AF9 against ENL) [23]: 6 fold

The next lines start with the values.

- Ki [1]: 80 nM
- Kd [2]: 900 nM
B1: DOT1L 16 mer peptide, Ac-…-NH2 (a.a. 865-880) (peptide)
peptide: Ac-LPISIPLSTVQPNKLP-NH2

- Kd [7]: 65 nM
- Kd [8]: 495 nM
- Kd [6]: 95 nM
B7: N-Flu-DOT1L, fluorescein-labeled DOT1L 10-mer peptide (N-terminal label) (peptide)
peptide: LPISIPLSTV-NH2
modifications: not fully specified (N-terminus)

- Kd [9]: 90 nM
- Kd [10]: 148 nM
- Kd [11]: 81 nM
- Kd [12]: 6220 nM
- Kd [13]: 238 nM
- Kd [14]: 122 nM
- Kd [15]: 206 nM
- fold decrease in binding affinity [16]: 30 fold
B9: ENL (489-559), recombinant C-terminal domain of ENL (protein)
chain: GTYDKAYTDELVELHRRLMALRERNVLQQIVNLIEETGHFNVTNTTFDFDLFSLDETTVRKLQSCLEAVAT

- IC50 [3]: 1340 nM
- IC50 [4]: 490 nM
B12: DOT1L 10mer peptide, Ac-LPISIPLSTV-NH2 (a.a. 865-874) (peptide)
peptide: Ac-LPISIPLSTV-NH2

- Ki [1]: 68 nM
- Kd [2]: 1100 nM
B13: DOT1L 10mer peptide, Ac-…-NH2 (a.a. 865-874) (peptide)
peptide: Ac-LPISIPLSTV-NH2

- Kd [17]: 2800 nM
- fold decrease in binding affinity against the intact ENL C-terminal domain [17]: 10 fold
B15: ENL H1 (489-544) (protein)
chain: GTYDKAYTDELVELHRRLMALRERNVLQQIVNLIEETGHFNVTNTTFDFDLFSLDE

- Kd [17]: 14600 nM
- fold decrease in binding affinity against the intact ENL C-terminal domain [17]: 30 fold
B17: ENL H2 (523-559) (peptide)
chain: EETGHFNVTNTTFDFDLFSLDETTVRKLQSCLEAVAT

- IC50 [3]: 1560 nM
- IC50 [4]: 320 nM
B19: DOT1L 16 mer peptide, Ac-LPISIPLSTVQPNKLP-NH2 (a.a. 865-880) (peptide)
peptide: Ac-LPISIPLSTVQPNKLP-NH2

- fold lower affinity against the 16-mer and 10-mer DOT1L peptides [18]: 3 fold
- IC50 [3]: 7300 nM
- IC50 [4]: 3900 nM
- Kd [19]: 3400 nM
- fold reduction in binding against the 10-mer peptide [20]: 8 fold
- fold reduction in binding against the 10-mer peptide [21]: 5 fold
B22: DOT1L 7 mer peptide, Ac-LPISIPL-NH2 (865-871) (peptide)
peptide: Ac-LPISIPL-NH2
